Tests used:
vgfr2_human KDR = vgfr2_human KDR (UniProt P35968)
igf1r_human IGF1R [1] = biological target: igf1r_human IGF1R (UniProt P08069)
fgfr4_human FGFR4 = fgfr4_human FGFR4 (UniProt P22455)
erbb4_human ERBB4 = erbb4_human ERBB4 (UniProt Q15303)
igf1r_human IGF1R [2] = biological target: igf1r_human IGF1R (UniProt P08069); remark: listed apart in the source
fgfr2_human FGFR2 = fgfr2_human FGFR2 (UniProt P21802)
grb2_human GRB2 = grb2_human GRB2 (UniProt P62993)
Sequence of grb2_human GRB2 (P62993 whole entry, looked up): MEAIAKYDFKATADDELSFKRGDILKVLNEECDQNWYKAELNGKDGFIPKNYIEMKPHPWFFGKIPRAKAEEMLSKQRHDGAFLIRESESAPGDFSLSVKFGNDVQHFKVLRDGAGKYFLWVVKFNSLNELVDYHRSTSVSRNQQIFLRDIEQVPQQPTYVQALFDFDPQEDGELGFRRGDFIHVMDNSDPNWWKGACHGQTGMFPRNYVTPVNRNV

Sequence of igf1r_human IGF1R (P08069 whole entry, looked up): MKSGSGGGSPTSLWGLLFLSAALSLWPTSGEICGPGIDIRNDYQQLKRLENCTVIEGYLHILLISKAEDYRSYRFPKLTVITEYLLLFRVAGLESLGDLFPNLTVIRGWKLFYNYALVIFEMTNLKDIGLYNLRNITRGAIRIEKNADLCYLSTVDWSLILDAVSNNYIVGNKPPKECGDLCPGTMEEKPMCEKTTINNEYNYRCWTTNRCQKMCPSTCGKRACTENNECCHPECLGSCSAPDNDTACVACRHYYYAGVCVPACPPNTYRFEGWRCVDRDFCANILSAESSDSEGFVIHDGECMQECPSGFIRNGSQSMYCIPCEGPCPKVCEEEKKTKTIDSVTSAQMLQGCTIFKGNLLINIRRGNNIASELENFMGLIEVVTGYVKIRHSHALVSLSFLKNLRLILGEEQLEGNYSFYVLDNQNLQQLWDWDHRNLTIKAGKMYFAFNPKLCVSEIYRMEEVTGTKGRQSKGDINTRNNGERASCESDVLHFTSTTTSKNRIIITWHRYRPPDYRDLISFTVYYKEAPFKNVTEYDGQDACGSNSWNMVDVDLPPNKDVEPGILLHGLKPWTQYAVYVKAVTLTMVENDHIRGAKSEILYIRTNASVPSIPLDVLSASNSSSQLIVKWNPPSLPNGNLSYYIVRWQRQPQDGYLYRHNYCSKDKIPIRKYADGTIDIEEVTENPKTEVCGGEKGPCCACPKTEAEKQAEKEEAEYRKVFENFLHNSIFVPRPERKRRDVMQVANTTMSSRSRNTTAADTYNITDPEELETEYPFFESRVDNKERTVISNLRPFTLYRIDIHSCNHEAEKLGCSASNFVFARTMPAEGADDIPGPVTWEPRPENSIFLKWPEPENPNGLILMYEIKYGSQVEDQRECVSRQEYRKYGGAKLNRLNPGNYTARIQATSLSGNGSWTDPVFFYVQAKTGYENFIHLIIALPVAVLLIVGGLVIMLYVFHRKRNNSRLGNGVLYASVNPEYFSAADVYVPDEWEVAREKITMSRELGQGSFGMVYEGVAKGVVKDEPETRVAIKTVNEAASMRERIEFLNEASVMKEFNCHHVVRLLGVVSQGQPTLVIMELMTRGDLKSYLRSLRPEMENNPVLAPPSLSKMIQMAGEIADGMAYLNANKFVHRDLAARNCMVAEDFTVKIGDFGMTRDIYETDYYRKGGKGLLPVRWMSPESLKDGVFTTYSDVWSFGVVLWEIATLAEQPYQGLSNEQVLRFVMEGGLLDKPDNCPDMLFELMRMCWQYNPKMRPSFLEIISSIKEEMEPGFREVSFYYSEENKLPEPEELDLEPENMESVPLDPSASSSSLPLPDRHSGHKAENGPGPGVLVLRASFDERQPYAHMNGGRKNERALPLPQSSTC
Sequence of Tyrosine-protein phosphatase non-receptor type 6 (Homo sapiens), P29350 D419A;C453S (P29350 whole entry D419A/C453S): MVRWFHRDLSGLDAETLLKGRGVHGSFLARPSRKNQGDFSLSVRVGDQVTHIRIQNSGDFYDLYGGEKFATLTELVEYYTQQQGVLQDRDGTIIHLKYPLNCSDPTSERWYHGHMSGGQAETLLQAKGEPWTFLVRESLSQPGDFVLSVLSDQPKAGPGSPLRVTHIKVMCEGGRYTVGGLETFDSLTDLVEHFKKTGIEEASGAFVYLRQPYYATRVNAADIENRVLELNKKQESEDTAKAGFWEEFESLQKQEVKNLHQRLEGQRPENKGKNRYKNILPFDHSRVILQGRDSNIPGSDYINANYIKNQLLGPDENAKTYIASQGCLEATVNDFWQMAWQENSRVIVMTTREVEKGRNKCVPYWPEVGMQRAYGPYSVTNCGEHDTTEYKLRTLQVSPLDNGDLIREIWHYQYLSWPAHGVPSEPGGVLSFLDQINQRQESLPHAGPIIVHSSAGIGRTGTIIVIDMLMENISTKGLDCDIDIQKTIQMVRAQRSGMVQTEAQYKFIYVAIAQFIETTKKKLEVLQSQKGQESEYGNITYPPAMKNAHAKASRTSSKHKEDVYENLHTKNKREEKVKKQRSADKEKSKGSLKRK
Sequence of Tyrosine-protein phosphatase non-receptor type 6 (Homo sapiens), P29350 C453S (P29350 whole entry C453S): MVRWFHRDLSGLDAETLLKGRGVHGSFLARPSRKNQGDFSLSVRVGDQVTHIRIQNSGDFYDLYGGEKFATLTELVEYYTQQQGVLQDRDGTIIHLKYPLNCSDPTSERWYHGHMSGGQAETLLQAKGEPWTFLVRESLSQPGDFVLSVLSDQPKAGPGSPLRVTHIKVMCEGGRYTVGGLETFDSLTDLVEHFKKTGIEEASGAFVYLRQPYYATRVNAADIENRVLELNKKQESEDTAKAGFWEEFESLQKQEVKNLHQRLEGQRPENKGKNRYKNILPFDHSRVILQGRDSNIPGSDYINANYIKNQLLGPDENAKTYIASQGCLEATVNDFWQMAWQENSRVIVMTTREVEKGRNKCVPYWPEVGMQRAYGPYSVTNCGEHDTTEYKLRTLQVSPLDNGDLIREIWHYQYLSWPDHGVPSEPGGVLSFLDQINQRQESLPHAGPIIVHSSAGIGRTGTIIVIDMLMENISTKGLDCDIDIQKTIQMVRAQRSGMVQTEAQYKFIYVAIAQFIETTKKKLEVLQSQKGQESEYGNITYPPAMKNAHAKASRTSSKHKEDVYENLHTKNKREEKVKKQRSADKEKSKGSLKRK
Sequence of fgfr4_human FGFR4 (P22455 whole entry, looked up): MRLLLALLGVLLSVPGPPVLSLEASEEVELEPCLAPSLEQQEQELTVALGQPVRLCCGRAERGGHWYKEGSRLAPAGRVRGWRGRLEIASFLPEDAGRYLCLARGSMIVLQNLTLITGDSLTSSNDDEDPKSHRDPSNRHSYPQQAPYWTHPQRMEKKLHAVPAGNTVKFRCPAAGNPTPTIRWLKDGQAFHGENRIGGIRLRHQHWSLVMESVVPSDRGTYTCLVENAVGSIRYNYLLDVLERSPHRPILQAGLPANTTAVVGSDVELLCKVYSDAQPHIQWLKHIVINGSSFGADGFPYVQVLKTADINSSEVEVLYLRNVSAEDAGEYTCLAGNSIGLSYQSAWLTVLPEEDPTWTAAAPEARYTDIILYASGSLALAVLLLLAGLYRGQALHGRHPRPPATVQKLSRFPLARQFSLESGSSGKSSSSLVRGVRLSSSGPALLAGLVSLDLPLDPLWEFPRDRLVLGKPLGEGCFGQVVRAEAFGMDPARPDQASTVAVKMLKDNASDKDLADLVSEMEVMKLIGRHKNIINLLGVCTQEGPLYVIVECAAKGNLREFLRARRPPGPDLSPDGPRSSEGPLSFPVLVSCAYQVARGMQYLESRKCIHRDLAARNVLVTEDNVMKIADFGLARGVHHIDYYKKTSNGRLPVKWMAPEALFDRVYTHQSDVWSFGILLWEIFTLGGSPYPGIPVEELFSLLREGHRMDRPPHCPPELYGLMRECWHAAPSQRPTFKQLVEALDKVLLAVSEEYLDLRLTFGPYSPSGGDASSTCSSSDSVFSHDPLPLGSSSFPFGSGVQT
Sequence of fgfr2_human FGFR2 (P21802 whole entry, looked up): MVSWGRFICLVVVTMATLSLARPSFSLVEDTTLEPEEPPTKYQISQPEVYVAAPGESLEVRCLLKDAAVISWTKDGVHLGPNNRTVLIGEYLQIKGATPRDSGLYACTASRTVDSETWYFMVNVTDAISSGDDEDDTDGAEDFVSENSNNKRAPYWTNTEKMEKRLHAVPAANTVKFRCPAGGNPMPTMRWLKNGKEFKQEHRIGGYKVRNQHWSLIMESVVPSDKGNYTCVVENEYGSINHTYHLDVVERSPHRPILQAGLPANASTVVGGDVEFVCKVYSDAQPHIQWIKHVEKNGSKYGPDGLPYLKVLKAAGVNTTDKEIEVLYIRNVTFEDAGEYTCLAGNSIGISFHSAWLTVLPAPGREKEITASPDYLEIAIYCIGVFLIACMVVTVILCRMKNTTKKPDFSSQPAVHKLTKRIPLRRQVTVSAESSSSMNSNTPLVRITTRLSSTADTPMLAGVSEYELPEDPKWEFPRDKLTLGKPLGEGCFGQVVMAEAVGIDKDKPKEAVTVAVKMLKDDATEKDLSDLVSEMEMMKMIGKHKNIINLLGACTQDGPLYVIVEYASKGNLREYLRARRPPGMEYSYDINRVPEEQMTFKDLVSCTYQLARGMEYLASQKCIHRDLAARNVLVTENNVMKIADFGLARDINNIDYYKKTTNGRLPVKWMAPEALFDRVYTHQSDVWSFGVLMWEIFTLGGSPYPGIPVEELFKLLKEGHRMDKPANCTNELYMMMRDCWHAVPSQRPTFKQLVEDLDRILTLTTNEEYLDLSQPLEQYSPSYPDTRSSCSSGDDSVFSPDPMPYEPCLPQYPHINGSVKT

Tyrosine-protein phosphatase non-receptor type 6 (Homo sapiens), P29350 D419A;C453S
effect of a mutation on the interaction (vgfr2_human KDR): with no effect
effect of a mutation on the interaction (igf1r_human IGF1R [1]): decreasing interaction
effect of a mutation on the interaction (fgfr4_human FGFR4): with no effect
effect of a mutation on the interaction (erbb4_human ERBB4): with no effect
effect of a mutation on the interaction (igf1r_human IGF1R [2]): with no effect
effect of a mutation on the interaction (fgfr2_human FGFR2): with no effect

Tyrosine-protein phosphatase non-receptor type 6 (Homo sapiens), P29350 C453S
effect of a mutation on the interaction (vgfr2_human KDR): with no effect
effect of a mutation on the interaction (igf1r_human IGF1R [1]): decreasing interaction
effect of a mutation on the interaction (fgfr4_human FGFR4): with no effect
effect of a mutation on the interaction (erbb4_human ERBB4): with no effect
effect of a mutation on the interaction (fgfr2_human FGFR2): with no effect

Receptor-type tyrosine-protein phosphatase alpha (Homo sapiens) (from UniProt P18433) Y798F
effect of a mutation on the interaction (grb2_human GRB2): decreasing interaction

Source: IntAct's records for PubMed 28065597
